We go through 2 molecules from publication doi:10.1101/2023.04.17.536592 (bioRxiv, 2023).

The chains are these.
B1: T. brucei histone H2B (natural protein, Trypanosoma brucei brucei)
chain: ATPKSTPAKTRKEAKKTRRQRKRTWNVYVSRSLRSINSQMSMTSRTMKIVNSFVNDLFERIAAEAATIVRVNRKRTLGARELQTAVRLVLPADLAKHAMAEGTKAVSHASS
notes: also called Tb H2B

Assay [1] addresses T1, T. brucei histone H2A (Trypanosoma brucei brucei, UniProt Q57YA3 2-134).
T1 construct: also called Tb H2A
T1 sequence: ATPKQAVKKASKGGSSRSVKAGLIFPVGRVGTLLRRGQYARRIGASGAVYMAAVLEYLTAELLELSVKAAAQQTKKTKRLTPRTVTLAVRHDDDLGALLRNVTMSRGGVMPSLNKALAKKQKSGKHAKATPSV
The experiment in a line: cryo-EM structure. The conditions noted are these: both partners purified.

The target of assay [2] is B1. The experiment in a line: cryo-EM structure. Conditions: both partners purified.

Consider B1, for which the binding result in assay [1] is “binds”.

B2: T. brucei histone H4 (natural protein)
chain: not shown
notes: also called Tb H4
As for B2, in assay [2], the binding result was “binds”.
